Target: T1, factor XII (FXII/FXIIa) in rat plasma (rat) (UniProt D3ZTE0)
T1 sequence (looked up): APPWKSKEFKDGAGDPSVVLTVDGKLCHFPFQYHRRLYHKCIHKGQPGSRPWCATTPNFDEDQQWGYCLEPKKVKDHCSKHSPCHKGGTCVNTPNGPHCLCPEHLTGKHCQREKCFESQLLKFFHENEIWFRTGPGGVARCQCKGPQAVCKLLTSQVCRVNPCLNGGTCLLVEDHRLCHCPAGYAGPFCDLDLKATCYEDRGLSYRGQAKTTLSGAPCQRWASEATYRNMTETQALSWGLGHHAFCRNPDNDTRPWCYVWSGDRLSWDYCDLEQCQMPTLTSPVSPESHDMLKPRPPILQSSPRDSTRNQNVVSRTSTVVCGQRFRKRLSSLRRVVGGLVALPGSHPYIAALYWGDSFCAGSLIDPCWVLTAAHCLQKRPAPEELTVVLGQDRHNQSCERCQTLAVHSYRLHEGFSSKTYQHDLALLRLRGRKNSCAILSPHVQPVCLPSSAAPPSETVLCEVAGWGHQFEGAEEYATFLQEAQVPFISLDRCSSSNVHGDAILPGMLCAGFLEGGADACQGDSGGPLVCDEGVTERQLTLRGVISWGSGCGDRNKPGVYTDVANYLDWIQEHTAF
Assay: cell-based or functional assay

FXII activity [% of the norm] in rat plasma spiked with 0.98 U/mL Berinert P (% of the norm): 215 | FXII activity [% of the norm] in rat plasma spiked with 2.4 U/mL Berinert P (% of the norm): 94 | FXII activity [% of the norm] in rat plasma spiked with 4.5 U/mL Berinert P (% of the norm): 85 | FXII activity [% of the norm] in rat plasma spiked with 9.92 U/mL Berinert P (% of the norm): 55 | FXII activity [% of the norm] in rat plasma spiked with 16.7 U/mL Berinert P (% of the norm): 25
B1: Berinert P (C1 esterase inhibitor) (protein, human, UniProt P05155 23-500, looked up)
chain: NPNATSSSSQDPESLQDRGEGKVATTVISKMLFVEPILEVSSLPTTNSTTNSATKITANTTDEPTTQPTTEPTTQPTIQPTQPTTQLPTDSPTQPTTGSFCPGPVTLCSDLESHSTEAVLGDALVDFSLKLYHAFSAMKKVETNMAFSPFSIASLLTQVLLGAGENTKTNLESILSYPKDFTCVHQALKGFTTKGVTSVSQIFHSPDLAIRDTFVNASRTLYSSSPRVLSNNSDANLELINTWVAKNTNNKISRLLDSLPSDTRLVLLNAIYLSAKWKTTFDPKKTRMEPFHFKNSVIKVPMMNSKKYPVAHFIDQTLKAKVGQLQLSHNLSLVILVPQNLKHRLEDMEQALSPSVFKAIMEKLEMSKFQPTLLTLPRIKVTTSQDMLSIMEKLEFFDFSYDLNLCGLTEDPDLQVSAMQHQTVLELTETGVEAAAASAISVARTLLVFEVQQPFLFVLWDQQHKFPVFMGRVYDPRA

— US20100279923A1
